Results from a protein production outcome set (Wang et al. 2014).

Experiment: label from the status in PepcDB records

In the case of “MMNYNTPKVSIVVPSLNSISYIRECIDSILNQTLKDIEILCIDANSTDGTLEVLKNYEKKDKRLRVIISDKKSYGYQMNLGIKEAKGEYLGIVESDDYIKTNMYERLYEIAKKNDCEVVKGDFYILESNKGKYSKITPIDFLYNQIISFKTHPNIFNFQSINPIGIYRLDLLRTNQIKLNETPGASYQDNGLWFQIFALAKSIYFINEAFYMLRRDNPNSSVKSKEKVYCACEEYDFIRDFLKKHPDLEKTLAPICALHRFGNYMFTLERIDERYKLDFLKRFSQDFRKILKDKELDENLFGDGDMKIIYSIVENPENYYFLYMGYCNDMFGKLYFGASERIKWQLSYRIGKLLIDLKNPVQILKFPFKLFLEIKQFKFEQKIYKTTIKFYPNLQLPPLEEYSDYEQALKTKKHLSYILGKSFINNPILFIFKIKKIYKQYKKDISSSKKNIKELSDYDFLLNRHKQIFDYTPDFKCPVTFNEKLIYRILYDRSCIYSFLADKIKMRFYVASALSDNHEYSWDKIDILNEKSILFNNIDDLQDKIFETNKCKYLPKIYGIYKNIYDINFNELPNSFVLKTNHDCGGYVIVENKQEFLRDTVVFSNAMKKLKKHLEWNYYSVFREWHYKDIEPRVFAEELLLGENKKPADTYKFHIFDKENLSNNFIQVTTDRFDNYQRAMFDLSWNLAPFNFMYDNKNVTMIPKKPNLLDSMINISLILAKPFDYVRVDLYQFDKKIYIGELTFTHGAAGEKVIPKEWDKKLGDLWRLKRLDNASK”, the protein production is reported as “failed”.
For “QKGWFPASHVKLLGPSSERATPAFHPVCQVIAMYDYAANNEDELSFSKGQLINVMNKDDPDWWQGEINGVTGLFPSNYVKMTTDS”, the protein production was “not failed”.
With “MASIEQVAELISSLEQATLMAQQIGTTVGQNQLLQISSLRIAHQRLSAFLASIPTAEAEKSFSSVEPMQLGEEEKGEAEPAEEERYSAIEKVEEKMRECFIRNKRLKRPLSPSSAVVETSATEERSGRDYGFDSDPHATKLRALDLIYQFHA” the protein production was “failed”.
For “MDEKNIVALLGQPNVGKTTLFNHLTGMKQRIGNWPGVTVEKKEGFFKKNNENYVVVDLPGIYSLMSDSIDQKIARDYIVENSKITVIDVIDTPNINRNLYLTIQLLELGISPILCLNLIDEAEKFGIYVNDQKLSEKLGVPVIRTSGRHKIGIDNLKNALYEFKPTEPVKITYSSLLEETIEKIIDKLENSQYKLDEIYARLPKRWIAISLLEKDPDVVNKFSKYPEFIKFVKDLKIEIENEIKHDVESYVVEQRYKKCDEILAGVMVNSELYEDIDTIVIHPVYGSLIFGVVLYTMYNFVFGLGDIFSGFIGSFFEILGNYLMNILPESFSGVIIDGLLAGVGGVLEFFPIVFLIMFSLSTLEDTGYLSRVTALTHSVMSTMGLSGKSFIPMITGFGCSVPALMGTRFISSHKERLITLLVTPLVPCSARFVIIGFFASFFFIEHAALFTLSILAITFAMLFIVSYVLSKFIKGEAEEYIFELPPYRIPDWDNIIKMTWAKSKEFLKKAGTVIAAGSILFYGFVNYPSPDANYAAVVGKIIEHVTQYMGLDWRAAISLIFGIFAKELVVSSFSILYPENISTAFSPLKAFVLTLVSVLYIPCLATLATLYLETRSLKWTAFGIGYNLVLATLVGIITYNIGTMLGF”, the protein production was “failed”.
With “MTMIKGYSEKVEKIYSKLRKTEEDNLKSRREEIKDKLPKIIKIDSEISRLCLKLSTNIFKKINNRDEYIKSLKNEITNLRMERSELLVSNGYPMDYLQMHYNCSKCKDTGYIGAHKCSCYKKYLVQLYYDNSDLKSLLNENNFENFNINYYSNRKSEDEPRTPRKNMEKILSLSLNYIKNFSDSNENLLFYGNSGTGKTFLSHCIAKDLLERGFLVIYKTSADLAQELKQLQFEPNPTLEDLIINCDLLIIDDLGTEQISAFSKTCFFNLINKKLLSQKKMLISSNYNLEELTRLYSERITSRLFGDFTLCKFYGDDIRINRNLKNKKI” the protein production was “failed”.
For “MRKTYKYRLYTCERNKHLVESIELASVVWNHFVALTRRYYEIYGEYPGYYALKKHLTKLKQRDKGHWYDLNSQALQNVIERLDQAYQRFFEIDSAGRPGFKKREKYTSFTLTQTGWKLLGGNRVRIQNHNYKFVKSRPIKGEIKTVTIKRDACGYLWICFSVEKEPPTPELPRTGNAVGLDFGLKDFLVTSDGDRIQAPEPLQESLEEVQDLHKKLSRKERGSNNRKEAKRRLAKKYRQIDNQRKDFHFKLARRLFSRYDVVCIEELNVGAMKELWGRKVSDLGFASFVKILEHVAQKEGKEVRKIDRWFPSSQTCSDCSHRYEDLSLEERTWTCEECGSLHDRDLNAARNVLERALSSAEAGVRPSGAAARVARSS”, the protein production was “failed”.
In the case of “YTFIGNSPVPKSYSLSEMRDAFIKFFEKRGHKFLKPYPVVPRWREDVLLVNASIYDFQPHVTSGIVRPPGNPIVMSQPSIRMNDVDLVGITGRHLTSFEMLCHDSFNTKDKTVYWKEETVHYCYDFLTEGLGIDGKLISFKEKPWSGGGNAGNALEVFVRGLEVATLVFMDMKEDPNGPYEIDGIRYSKMDMRIVDTGYGLERLTWLSQGTPTVYQAIYPDIIQHVMKNSSVSDIDEEFLSEVVKASVMKEP”, the protein production is reported as “failed”.
For “MMEVGILPVHVLYVFFIGAIILFMLLRKDTTFISLFGIFIISLWASHSLSASVSSLFHSFIYAAGELLPTIFIICFIVSMSDLLTKTGINEAMISPFASLVRGPVTAYWLIGGLMFAISLFFWPSPGVALIGAVLLPAAARAGLTPLAAAMAMNLFGHGFALSGDFVIQAAPKLTADAAGIPVGDVVSASIPLVLIMGVTTTTAAFIMIQRERKKQEHPTSFSPVLSGEQDNSLYLPKRLRSILAFLIPLAFLADIACMLLFNLQGNDATALIGGSAICILFTVHFFVYKHKGLEKITGYFIDGFKFGFKVFGPVIPIAAFFYLGDSGYESILGTSLPKGSHGIVNDLGIALSHMMPMSKELAATALTAAGAITGLDGSGFSGISLAGSIAKLFSSALHADPAILTALGQISAIWVGGGTLVPWALIPAAAICKVDPFELARKNFIPVAIGLLVTTLAAVMML”, the protein production was “failed”.
For “MIGEQPGDIFRRGEILNHTYEIEGVLGRGGTGEIYRARNLISGRIVAVKALNRRFSGNDDYIGLMRREEQLRDVIDDAVVRYTECSRSDGGHVFLVMDHIEGPSLAQAMEAGRIEARDLLIVAHRVAEGLRAAHRHGIVHRDLSPDNIILRGGAPERATIIDFGIAKDLSAGAQTIVGNDFAGKYEYAAPEQIDGRAEPRSDLYALGATLLAAFRGEAPFAGATPGEIVRRKGRPLDTEGVPEPLRGLIDRLAAPEAERRPASAAAVVEELDRLLRPQAEPDRRRRVWPALAALLLLAVLAVGGWIALRPPLAEPYRLTASAADLAGEAPDRAAAARIAAAYARAAGHESHGLRIARGAPEGWADAAAEVLALAATLDDWRLALNGAEAALSGRAPDARSAAMVETRFRDWASRRGFEPRLQIEVVPPPLDPQAVSALLQRHADCGPLSEGGTEGVITGAVATAETAAALERALADLRGDRPLHLAITVLNPAICAVRQALPDRPAQGLSIWLGEAATGAPNLAGIYGPGDYPLVEIRLPAGMSGLALWVGLVDVTGSVLNLLPNVYSDESRIDRLGTVANGVRTIRVMPLEFQVAGGTQLFALQVEARDFGRSELVAVVSRGDLFALRRPKDESVASFTEALSALRRDDPDRLVAVTRRLLESRPSR”, the protein production was “failed”.
For “MPNHDYRELAAVFAGGALGALARAALSALAIPDPARWPWPTFTVNVVGAFLVGYFTTRLLERLPLSSYRRPLLGTGLCGGLTTFSTMQVETISMIEHGHWGLAAAYSVVSITLGLLAVHLATVLVRRVRIRR”, the protein production was “failed”.
For “SRFYEQHADCLAEQYTSLKFEDVHASWRAFWPQARDRVLDVGAGSGRDAKWMAEHGCEVIAIEPAQALLRFGKSYCGDSVTWLEDGLPKLEKTINLGFRFDLILVSAVWMHLAPTHRERAFRKLANLLAPNGRLVISLRHGDFSDGRKAYPVSVEELEKFAKNRALMVRNVS”, the protein production was “failed”.
In the case of “MKRKGVGFSLPVTVVMLVIGFIYFASVFTFIDRWFSLTSSPGIANAAAFTALALMCIYNYSIAVFRDPGRVPLNYMPDVEDPESPVHEIKRKGGDLRYCQKCSHFKPPRAHHCRVCKRCVLRMDHHCIWINNCVGHTNYKVFFVFVVYAVTACVYSLVLLVGSLTVEPQDEEEEMGSYLRTIYVISAFLLIPLSIALGVLLGWHIYLILQNKTTIEVYHEGVRAMWLAEKGGQVYKHPYDIGAYENLTLILGPNILSWLCPTSRHIGSGVRFRTAFDSIPDSSETKH”, the protein production is reported as “failed”.
In the case of “TIEARTAQSTPSAPPQKVMCVSMGSTTVRVSWVPPPADSRNGVITQYSVAYEAVDGEDRGRHVVDGISREHSSWDLVGLEKWTEYRVWVRAHTDVGPGPESSPVLVRTDEDVPSGPPRKVE”, the protein production is reported as “not failed”.
For “MSFRAFLPAAMLVTVAGFWLGASTPGVAQYCEGTVHGLSGRYNLATGSGFLAVRTRPNSSSRMIGQLFNGDHVEIFDRRGNWYQVEIGGSTGWANARWLRNDCRY”, the protein production was “failed”.
With “TQIQNRTRRAKRALAARGLTEAVTWSFISKPFAEAFGGGQPELALANPIASDLSDMRPSLLPGLIAAAQANADRGSPDLALFEVGQVFKGDRPQDQFMAASGVRRGVASSAGLGRHWSGSAQATALDAKADAFAVLAAAGAPMAGLQIATNKLPAWLHPGRSGAIQIGPQNVLGYFGELHPRVLEQLGADGPLVAFEVILEKIP” the protein production was “not failed”.
For “LDSELELPAGWEKIEDPVYGIYYVDHINRKTQYENPVLEAKRKKQLE”, the protein production was “not failed”.
For “MRMGVKDFAPSWFASVMGTGALALVSKSYSFKLPILEAFSKFLTYLNTIIFFVLLIPWLLRWIKYPSEAKKDLYHPVTSHFYGTMPIAMTIVAVNLAMFGYKEIALPLWILGSILVVIFAFLIPYLFFISEGVDVKTITPAWFIPPVGLIVIPLTSLPFVPSSVMWREVFIVLNYFGFGAGFFIYLALFAIVMRRFITHELLPPIMAPAVWINLGPLGAGAVALLNLAKIMPIAKSAFKAFAFILWGFGLWWLIMAILMTLHYLKNLHLPYSLAWWAFIFPLGAYVSATYNVGISIGITAMIEFGFALYWFLLALWLVTGIKTLVHDFSS”, the protein production was “failed”.
In the case of “MMKKLFLDTHSASGEIKLTDGLLYWFPQFLTPIQADQAFQQMLTHLDWQQKSIRLFGKSVLQPRLIAWYGEKGYRYSGLSLSAQPFPPPLLTLKTQCEQAAQAPFNSVLANLYRDGQDSMGWHQDNEPELGSNPVIASLSLGESRRFLLRHHKDHALQVECELNHGDLLIMAGNTQHFWQHAIPKTRQTKQTRINLTFRNILLEHHHHHH”, the protein production is reported as “not failed”.
In the case of “PFKAGKARGLTTEQLNTRLDIDEFETGLMRLAQDSFSTDDYLFQEGQYLDEDTVLSWLARKKTGSDLKKAEKEDKNFKNEGLNPALPSSGSTEEKNESSPIYLASMLEHDYLVRKDKNSIQLGGVMIGLALNSVYYYREKTGDPQKEVEIKDSTLRQQGEKIAQEVINRLRKKDNLKNVPITVALYKQASKTSIVPGNFIAKTEVKAGSTDISNWDDINEKYVFYPADTTTAEKYPDDTEVFKRFKNSIEEYFPNYTGVVGTALYENDEMKKMKIDIPMQFYGKSEVVAFTQFLTGEVMDYYSKSSVDVEVNITSSDGQEAVIIRNAGDKEPTVHIYD”, the protein production is reported as “failed”.
With “MMEKIMEYLQLSDEVVDDGEAPRVEEFLGEGKSFYENFSLRGIRVNRVEPGFISCSFKVPLRLTDRDKNLANGAIANLVDEVGGALVHGEGLPMSVSVDMSIAFLSKAKLGEELEITSRLLGERGGYKGTIVVVRNKMTGEIIAEGRHSMFGRQASKL” the protein production was “failed”.
For “MRRRKYPWKQADILIHRYCRRLTTGQRLAVIAVAFALFMAGCLYMLLSSLLGFGETGGGLQIEHIRPLDIKPEKDTTIHFKDYYDYGHSENQDTVRLVC”, the protein production was “failed”.
In the case of “MSLTGNAQAATIADPSTLVVDTVGPVLTIGLNRPKKRNALNDGLMAALKDCLTDIPDQIRAVVIHGIGDHFSAGLDLSELRERDATEGLVHSQTWHRVFDKIQYCRVPVIAALKGAVIGGGLELACAAHIRVAEASAYYALPEGSRGIFVGGGGSVRLPRLIGVARMADMMLTGRVYSAAEGVVHGFSQYLIENGSAYDKALELGNRVAQNAPLTNFAVLQALPMIAEANPQTGLLMESLMATVAQSDQEAKTRIRAFLDHKTAKVREGHHHHHH”, the protein production is reported as “not failed”.
